T1: FAT1 recombinant cadherin Domain 8 (amino acid 823 to amino acid 927) (human, UniProt Q14517 826-923, limits assumed)
T1 construct: Recombinant form purified from E. coli, used in ELISA and SPR; Any tag is not described; A His6-V5 tagged version was also expressed in transfected HeLa and HEK-293T cells for Western blot; also called FAT Domain 8
T1 sequence: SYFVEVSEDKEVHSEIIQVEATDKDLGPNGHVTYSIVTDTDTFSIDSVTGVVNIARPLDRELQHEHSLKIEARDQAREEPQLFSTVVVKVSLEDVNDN

T2: FAT1 recombinant cadherin Domain 12 (amino acid 1246 to 1352) (human, UniProt Q14517 1250-1344, limits assumed)
T2 construct: Recombinant form purified from E. coli, used in ELISA, SPR and Western blot; Any tag is not described; also called FAT Domain 12
T2 sequence: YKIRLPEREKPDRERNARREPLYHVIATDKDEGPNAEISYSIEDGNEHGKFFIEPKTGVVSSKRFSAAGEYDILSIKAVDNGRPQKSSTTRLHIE

B1: FAT1 25 mer Peptide 3 (peptide)
peptide: IQVEATDKDLGPNGHVTYSIVTDTD
notes: Made by chemical synthesis
B2: FAT1 25 mer Peptide 1 (peptide)
peptide: REPLYHVIATDKDEGPNAEISYSIE
notes: Made by chemical synthesis
B3: anti-FAT1 monoclonal antibody mAb91.3 (antibody, V domains shown)
VH: VQLQQSGSELVRPGASVKLSCKASGYTFTRSWMHWIKQRPGQGLEWIGNIYPGSGGTNYDEKFKSKATLTVDTSSSTAYMQLSSLTSEDSAIYYCTRSGGQRFDYWGQGTTLTVSS
VL: IVMTQSPAIMSAFSGEKVTMTCSASSSVSSMHWYQQKSSTSPKFWIYDTSKLASGVPGRFSGSGSGNSYSLTISSMEAEDVATYYCFQGSGYPFTFGGGTKLEIKR
notes: Mouse hybridoma antibody, subclass IgG1k; also called anti-FAT1 mAb91.3; the anti-FAT1 monoclonal antibody
B4: FAT1 25 mer Peptide 2 (peptide)
peptide: YHVIATDKDEGPNAEISYSIEDGNE
notes: Made by chemical synthesis

The target in assay [1] is B3. Briefly: FACS competition on HCT-15 cells: mAb91.3 incubated with rising peptide concentration; blocked partner is FAT1 on the cell surface. On the procedure:
For Flow Cytometry analysis, cells (2×10⁴ per well) were pelleted in 96 U-bottom microplates by centrifugation at 200× g for 5 min at 4° C. and incubated for 1 hour at 4° C. with the appropriate dilutions of anti-FAT1-monoclonal antibody. The cells were washed twice in PBS-5% FCS and incubated for 20 min with the appropriate dilution of R-Phycoerythrin (PE)-conjugated secondary antibodies (Jackson Immuno Research, PA, USA) at 4° C. After washing, cells were analysed by a FACS Canto II flow cytometer (Becton Dickinson). Data were analyzed with FlowJo 8.3.3 program.

The assay “FAT1 25 mer Peptide 2” addresses B4. Briefly: ELISA with 25 mer peptides. On the procedure:
(§1) For ELISA competition experiments, ELISA plates (Nunc Maxisorp) were coated with 1 μg of the FAT1 recombinant proteins in PBS (pH 7.4) at 4° C. overnight. The plates were washed, treated for 1 h at 37° C. with PBS-1% BSA, and 100 μl aliquots of mAb91.3 at (10 micrograms/ml) in PBS-0.1% Tween were added to the wells in the presence of the 25 mer peptides at concentration ranging from 0.001 to 100 micrograms/ml. After incubation for 2 h at 37° C., plates were again washed and incubated for 1 h at 37° C. with alkaline-phosphatase conjugated goat anti-mouse IgG (Sigma) diluted 1:2500 in PBS-Tween. Thereafter 100 μl of PNPP substrate (Sigma) were added to the samples and incubated for 30 min at room temperature and optical densities were read at 405 nm.

The assay “FAT1 25 mer Peptide 3” deals with B1. Briefly: ELISA with 25 mer peptides. As for the experimental part:
as §1

For the assay “FAT1 25 mer Peptide 1”, the target named is B2. Briefly: ELISA with 25 mer peptides. On the procedure:
as §1

Assay [2] addresses T1, FAT1 recombinant cadherin Domain 8 …. Briefly: SPR, Biacore T100, 25 C, FAT1 domain amine-coupled to CM5 chip, mAb91.3 injected, 1:1 Langmuir model. As for the experimental part: (§2) The kinetics of association and dissociation and the Dissociation constants of the anti-FAT1 mAb91.3 were determined using Surface Plasmon Resonance Analysis. Experiments were performed at 25° C. with a BIACORE T100 instrument (Biacore A B, Uppsala, Sweden). The recombinant FAT1 proteins were immobilised on a carboxymethylated dextran-coated (CM5) sensor chip by amine coupling. Briefly, a mixture of 0.2 M 1-ethyl-3-[…]-carbodiimide (EDC) and 0.05 M N-hydroxysuccinimide (NHS) was used for sensor chip surface activation. Proteins pre-concentrated in 0.01 M sodium acetate pH 3.5 were injected at concentration ranging from 2.5 and 5 μg/ml for 10 min and then 1 M ethanolamine pH 8.5 was used to block any remaining activated groups. mAb91.3 was diluted in HBS-EP+buffer at different concentrations from 0.625 μg/ml to 5 μg/ml and injected for 120 s at a flow rate of […] on flow cell 2 and 3. HBS-EP+ buffer was run as control.

Assay [3] deals with T2, FAT1 recombinant cadherin Domain 12 …. The description is as above. On the procedure: as §2

Data on four molecules can be found in US20160131656A1 (EXTERNAUTICS S P A, published 2016).

Turning to B1, the binding result in assay [1] was “binds”.
For B2, in assay [1], the “IC50 (read off the curve)” value is around 0.5 µg/mL.
In the case of B3, the binding result with FAT1 25 mer Peptide 2, with FAT1 25 mer Peptide 3 and in the assay with FAT1 25 mer Peptide 1 was “binds” each time. In addition, the Kd in assay [2] worked out at 9.52 nM; in assay [3], 18.2 nM. The off-rate constant (koff) in assay [2] came to 0.00313 s⁻¹; in assay [3] it was 0.00707 s⁻¹. Besides, the values for the association rate constant (kon) in assay [2] and in assay [3] were 329000 M⁻¹ s⁻¹ and 389000 M⁻¹ s⁻¹, respectively.
B4: the binding result in assay [1] was “binds”.
